Assay results reported in paper PMC5386471.

Molecular target: Flag-ACRP-hCD40L

- amount of transfected CD40-GPI plasmid sufficient to inhibit 50% of CD40-induced NF-κB response (luciferase reporter, 293T cells; CD40L here from 1 ng of co-transfected plasmid): 1.4 ng
Substance: GPI-anchored CD40 ectodomain (from UniProt P25942 21-193)
